Test results reported in patent US10889844B2, “Methods of degrading or hydrolyzing a polysaccharide” (Novozymes A/S, priority 2010, dated 2021).
“Also recorded” adds a separate entry of the source.

Experiments:
Type in all cases: biochemical
[1] = Filter paper degradation by […] with CelS2 or E7 (FIG. 20), sugars by HPLC
Method: Reactions were run in 50 mM Bis-tris/HCl pH 6.5, 1 mM MgCl2, at 50° C. and 900 rpm (horizontal agitation). Control reactions containing the cellulosic substrate suspended in the same buffer as used for the enzyme assays gave no detectable signal for either glucose or cellobiose.
(§1) The mobile phase consisted of 5 mM sulfuric acid and the flow rate used was 1.0 ml/min. Eluted glucose and cellobiose were monitored by recording refractive index. Quantification was obtained by running glucose and cellobiose standards.
(§2) Assays performed to evaluate the function of E7 and CelS2 were set up using a variety of cellulosic substrates (AVICEL®, filter paper and steam exploded wood chips from poplar), at either pH 5.5 (20 mM sodium acetate buffer), 6.5 (20 mM Bis-Tris buffer) or 8.0 (20 mM Tris buffer) in reaction mixtures containing 1.0 mM MgCl2.

[2] = Cellulase boosting properties of CelS2 at various pHs with monocomponent Cel7A; conditions: CelS2 with Cel7A; data not shown
Source text: When probing the cellulose boosting properties of CelS2 at various pHs using monocomponent Cel7A as the cellulose hydrolytic component, pH 5.5 came out as the optimal pH for activity. […] The most obvious reason for the decrease in cellulose hydrolysis at increasing pH is the pH stability and efficiency of Cel7A. […] CelS2 is a bacterial enzyme that originates from Streptomyces species that are known to grow optimally on cellulosic substrates in approximately neutral pH conditions (Kontro et al., 2005, Letters in Applied Microbiology 41: 32-38.).

[3] = Filter paper degradation by HjCel7A with CelS2 over time (FIG. 26); conditions: 40 μg/ml CelS2, 5 μg/ml HjCel7A, pH 5.5, 50° C.
Method: By far the major products of these reactions are cellooligosaccharides released by the cellulases (whose activity is boosted by CelS2). In the case of HjCel7A, the main product is cellobiose and formation of this product is shown. RG, indicates the presence of a reductant, in this case reduced glutathione. […] The reactions were run at 50° C.

[4] = Soluble products released from AVICEL by CBM33 proteins (MALDI-TOF MS, HPAEC)
Method: The main peaks are annotated with molecular weight and degree of polymerization (DP).
The DP of the oxidized cellooligosaccharides is indicated by n, where n=3 (the shortest labelled oxidized cellooligosaccharide has a DP of three (=n)). […] Peak annotation was performed by comparing the chromatogram with the chromatogram obtained for a chemically prepared mixture of oxidized cellooligosaccharides with lengths varying from DP1 to DP10.
The main peaks are annotated with molecular weight and degree of polymerization (DP). All annotated peaks are Na adducts of native cellooligosaccharides, oxidized cellooligosaccharides (denoted “ox”) or the sodium salts of oxidized cellooligosaccharides.
Products were analyzed after 20 hours of incubation in 20 mM ammonium acetate buffer pH 5.0, 1 mM MgCl2 at 50° C. and 900 rpm (vertical agitation).
Separation of native and oxidized cellooligosaccharides was achieved using a Dionex Bio-LC equipped with a CarboPack PA1, a column temperature of 30° C. and a flow of 0.25 ml/min, with starting conditions, i.e., 0.1 M NaOH. A stepwise linear gradient with increasing amounts of sodium acetate was applied, going from 0.1 M NaOH and 0.1 M sodium acetate in 10 minutes, then to 0.1 M NaOH and 0.3 M sodium acetate for 25 minutes then increasing to 0.1 M NaOH and 1.0 M sodium acetate at 30 minutes which was kept for 10 minutes. Column reconditioning was achieved by a one minute gradient to initial conditions and subsequent running at initial conditions for 14 minutes. Eluted oligosaccharides were monitored by PAD detection. Chromatograms were recorded and analysed using Chromeleon 7.0 Peak identification was achieved by a procedure including the following steps: oxidized cellooligosaccharides were separated using a Dionex Ultimate 3000 UHPLC system carrying a Hypercarb 150×2.1 mm column (Thermo Scientific) running a gradient of water/0.1% TFA and acetonitrile/0.1% TFA (from 20 to 80% acetonitrile) according to the method developed by Westphal et al., 2010, Journal of Chromatography A 1217: 689-695. Eluted peaks were manually fractioned, freeze-dried, re-dissolved in MilliQ water and identified using MALDI-TOF MS. Pure oxidized cellooligosaccharides with known identity were then analyzed using the HPEAC method described above in order to establish the identity of the oxidized cellooligosaccharides generated by CelS2 and E7.

[5] = Time course of filter paper cellulose degradation by […] with CelS2 (FIG. 25)
Method: In reactions where no CelS2 was present, 40 μg/ml purified BSA was added in order to maintain an identical protein load. […] Data are mean+/−SD (N=3); error bars indicate SD.

[6] = Soluble oxidized products from other cellulosic variants by CelS2 (MALDI-TOF MS); conditions: results not shown
Source text: Finally, other cellulosic variants (filter paper and steam exploded sawdust from poplar) were also probed as substrates for CelS2. […] This is most likely due to the high DP of the cellulose in these substrates; cleavages on the crystalline surfaces will not easily lead to release of soluble (=short) cellooligosaccharides when the overall DP is very high. AVICEL® is special in that it is a form of microcrystalline cellulose that has a very low DP (˜60-100; Wallis et al., 1992, Carbohydrate Polymers 17: 103-110 and Mormann and U, 2002, Carbohydrate Polymers 50: 349-353) compared to that of the other substrates tested.

[7] = Filter paper degradation by Cel7A with CelS2 (FIG. 21), cellobiose by HPLC
Method: These reactions were conducted in 50 mM sodium acetate pH 5.5, 1 mM MgCl2, at 50° C., 900 rpm (horizontal incubation). Only the cellobiose concentration was quantified as the amount of glucose was minor (less than 5% of the total sugar). Control reactions containing the cellulosic substrate suspended in the same buffer as used for the enzyme assays gave no detectable signal for either glucose or cellobiose.
as §1, §2

[8] = Degradation of steam exploded saw dust from poplar by […] with CelS2 (FIG. 24); conditions: 1.0 μM CelS2, CELLUCLAST, 1.0 mM reduced glutathione, pH 5.5, 20 hours
Method: as §2

B1: CelS2: multidomain CBM33 with C-terminal CBM2 from Streptomyces coelicolor A3(2) (SEQ ID NO: 7) (protein)
chain: MVRRTRLLTLAAVLATLLGSLGVTLLLGQGRAEAHGVAMMPGSRTYLCQLDAKTGTGALDPTNPACQAALDQSGATALYNWFAVLDSNAGGRGAGYVPDGTLCSAGDRSPYDFSAYNAARSDWPRTHLTSGATIPVEYSNWAAHPGDFRVYLTKPGWSPTSELGWDDLELIQTVTNPPQQGSPGTDGGHYYWDLALPSGRSGDALIFMQWVRSDSQENFFSCSDVVFDGGNGEVTGIRGSGSTPDPDPTPTPTDPTTPPTHTGSCMAVYSVENSWSGGFQGSVEVMNHGTEPLNGWAVQWQPGGGTTLGGVWNGSLTSGSDGTVTVRNVDHNRVVPPDGSVTFGFTATSTGNDFPVDSIGCVAP
modifications: Streptomyces coelicolor
increase of glucose yield versus CELLUCLAST only ([1]; no external electron donor, 24 hours): ~3.0 fold
increase of glucose yield versus CELLUCLAST only ([1]; no external electron donor, 120 hours): ~9 fold
increase of glucose yield versus CELLUCLAST only ([1]; with external electron donor (1 mM reduced glutathione), 24 hours): ~5 fold
increase of glucose yield versus CELLUCLAST only ([1]; with external electron donor (1 mM reduced glutathione), 120 hours): ~11 fold
activity at pH 6.5 [2]: Less activity
activity at pH 8.0 [2]: no activity could be detected
optimal pH for activity [2]: 5.5
effect on Cel7A activity (cellobiose formation) [3]: boosts the activity of the cellulase, Cel7A; also recorded: prolongs the activity of Cel7A
CelS2 activity at pH 8.0 ([4]; AVICEL, FIG. 19): active
release of soluble native/oxidized cellooligosaccharides from AVICEL ([4]; with external electron donor (ascorbic acid or reduced glutathione)): soluble oligomeric products were observed
effect on CELLUCLAST (CC) production of soluble glucose over time ([5]; 10 mg/ml filter paper, 0.8 μg/ml CC, pH 5.5): production of soluble glucose continues
Glc or Glc2 released without cellulase ([5]; reactions with only CelS2): did not yield detectable amounts of Glc or Glc2
soluble oxidized cellooligosaccharides [6]: Soluble oxidized cellooligosaccharides were not observed
improvement of Cel7A activity (cellobiose yield) ([7]; absence of external electron donor, 18 hours): 5.5 fold
improvement of Cel7A activity (cellobiose yield) ([7]; absence of external electron donor, 40 hours): 7.3 fold
improvement of Cel7A activity (cellobiose yield) ([7]; presence of external electron donor, 18 hours): 6.7 fold
improvement of Cel7A activity (cellobiose yield) ([7]; presence of external electron donor, 40 hours): 9.8 fold
cellulase boosting effect (cellobiose release) [8]: ~2 fold
